23 sequences from the supplement of paper PMC9170038 can be followed below.

The data set has as its system MS2 coat protein. Briefly: apparent KD of MS2 coat protein; designed switch direction (-1 OFF switch, 1 ON switch): -1; higher = weaker reporter binding. In a few lines:
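Transcription of designed RNA switches on Illumina chips was done by stalled E. coli RNA polymerase. SNAP-549-labelled MS2 coat protein was then titrated in doubling steps from 0.7 or 1.5 nM to 3 µM, with steps of 0.8–1.5 h at the lowest and 10–20 min at the highest concentration. The per-design median over clusters of curve-fitted normalised fluorescence is reported as apparent KD.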

Setting [1] is: Eterna round: R95, input ligand: FMN 200 uM.
Setting [2] is: Eterna round: R95, input ligand: microRNA oligo, concentration not stated.
The mark [3] stands for this setting: Eterna round: R95, input ligand: none.
The mark [4] stands for this setting: input ligand: microRNA oligo, concentration not stated.

Consider “GUAAAGUGAGGAUAUGGUAAAUUAAUUAUUAAUUAAUUAAUCCAGAAGGCACAUGAGGAUCACCCAUGUUAAUG [Mat - Exclusion 4 - D89] (puzzle: Exclusion 4)”, for which the “apparent KD of MS2 coat protein” value is, setting by setting: under setting [1], 50.9 nM; under setting [2], 28.6 nM; under setting [3], 34.5 nM.

On to “GUAACAACUAGAGGAUAUCAGCACGUGUAGUGCUGAGAAGGCUAGAGUUACAUGAGGAUCACCCAUGUCUAGAGAUCAUUAAUU [ENG1/13-A3] (Eterna round: R96, puzzle: Exclusion NG 1)”, for which the “apparent KD of MS2 coat protein” value reads like this: (input ligand: FMN 200 uM) 142 nM; under setting [4], 52.9 nM; (input ligand: none) 69.3 nM.

On to “GUAAGUUCAGGAUAUGAUGAAUUAAACAUGAGGAUCACCCAUGUAGAUCCUGAAUUAACAUCAGAAGGGAAUAUUU [JL-ex5-4.53 Brourd mod] (Eterna round: R97, puzzle: Exclusion 5)”, for which the “apparent KD of MS2 coat protein” value came to 22.2 nM (input ligand: FMN 200 uM) and 15.5 nM (input ligand: none).

Consider “GUAAUACAUGAGGAUCACCCAUGUUAGGAUAUCUGCAGGACGUCUCCCGUAUAUCCGUAGAGAAGGGACAGUGG [Eternabot (L1) Solution 20] (Eterna round: R97, puzzle: Exclusion 1)”, for which the “apparent KD of MS2 coat protein” value is, setting by setting: (input ligand: FMN 200 uM) 43 nM; (input ligand: none) 33.6 nM.

Turning to “GUAAUGUCAGGAUAUACUAAUGAUGAAUGAUCAGACAUUAUGUAGAAGGGACAUGAGGAUCACCCAUGUAAUAU [EX4 #4] (Eterna round: R97, puzzle: Exclusion 4)”, the “apparent KD of MS2 coat protein” value turned out to be 49.3 nM (input ligand: FMN 200 uM) and 28.4 nM (input ligand: none).

Take “GUAAUUCGAGGAUAUGCCCAUCUAAACAUGAGGAUCACCCAUGUGCGCAUGUUUACCAUCGCAGAAGGCGAGCUGC [Eternabot (L1) Solution 31] (Eterna round: R97, puzzle: Exclusion 5)”: the “apparent KD of MS2 coat protein” value by setting is: (input ligand: FMN 200 uM) 39.3 nM; (input ligand: none) 25.5 nM.

Consider “GUACGCUCAGGAUAUCAAGGGCUGUACAUGAGGAUCACCCAUGUUAUCUUGGUGUCAGCGUGAGAAGGGAGGGAAA [Xesoonesa] (Eterna round: R96, puzzle: Exclusion 5)”, for which the “apparent KD of MS2 coat protein” value (input ligand: FMN 200 uM) was found to be 27.2 nM, the “apparent KD of MS2 coat protein” value under setting [4] is 20.2 nM and the “apparent KD of MS2 coat protein” value (input ligand: none) is 28.6 nM.

With “GUACGCUCAGGAUAUCAAGGGCUGUACAUGAGGAUCACCCAUGUUAUCUUGGUGUCAGCGUGAGAAGGGAGGGAAA [Xesoonesa] (puzzle: Exclusion 5)”, under setting [2], the “apparent KD of MS2 coat protein” value was determined as 20.6 nM.

With “GUACUGACAGGAUAUACAUGAGGAUCACCCAUGUGCCUUAAUGCUACAAAAGUAGCAAGUAGAAGGGUCUGUAC [Omei Ex3 Model Bachelor's Dilema v11] (Eterna round: R97, puzzle: Exclusion 3)”, the “apparent KD of MS2 coat protein” value came out at 79.7 nM (input ligand: FMN 200 uM) and 16.5 nM (input ligand: none).

Turning to “GUAGAGACAGGAUAUACAUGAGGAUCACCCAUGUAAGGAGGAAGAGAGAGGAGAAGGAGUAGAAGGGUCAGAGG [JR_Exclu3_Sub029] (puzzle: Exclusion 3)”, the “apparent KD of MS2 coat protein” value is, setting by setting: under setting [1], 29.2 nM; under setting [2], 35.3 nM; under setting [3], 35.2 nM.

Regarding “GUAGAGUAAGGAUAUGUAGAAUAGGAUAGAAUGGUUAGAAUACAGAAGGUACAUGAGGAUCACCCAUGUAAUGU [Excluse me!!!! 3 - Jieux - Exclusion 4] (puzzle: Exclusion 4)”, the “apparent KD of MS2 coat protein” value under setting [2] came out at 17 nM.

In the case of “GUAGAGUAAGGAUAUGUUGAAUAGGAUAGAAUGGUUAGAAAACAGAAGGUACAUGAGGAUCACCCAUGUAAUGU [Excluse me!!!! 11 - Jieux - Exclusion 4] (puzzle: Exclusion 4)”, the “apparent KD of MS2 coat protein” value under setting [1] was determined as 20 nM, the “apparent KD of MS2 coat protein” value under setting [2] was found to be 19.1 nM and the “apparent KD of MS2 coat protein” value under setting [3] was 17.6 nM.

In the case of “GUAGAUCGAGUUAGGAUAUGAUUAAAAUCCGGAUAUCAGAAGGAACUUGAGGAUCACCCAAGUAUAGAUGAUUU [JR_BMEx4_Sub055] (Eterna round: R97, puzzle: Brourd's mod of Exclusion 4)”, the “apparent KD of MS2 coat protein” value (input ligand: FMN 200 uM) is 104 nM and the “apparent KD of MS2 coat protein” value (input ligand: none) amounted to 23.2 nM.

As to “GUAUAACUACACGGGCUCAACAUGAGGAUCACCCAUGUCAUAUACGCAAGCUUUUUGCUUGUCUUAUCAGGCCGUGA [Ceatxe] (puzzle: Sensor v3, turn-off variant 1)”, the “apparent KD of MS2 coat protein” value under setting [1] is 13.5 nM, the “apparent KD of MS2 coat protein” value under setting [2] came to 16.5 nM and the “apparent KD of MS2 coat protein” value under setting [3] came to 12.4 nM.

Turning to “GUCACAUGGACAUAGGAUCACAUGAGGAUCACCCAUGUGACUAACAAGCUUUUUGUUCGUCUUAUGUCCAUGUGAAG [Stov1/15-B3] (Eterna round: R97, puzzle: Sensor, turn-off variant 1)”, the “apparent KD of MS2 coat protein” value reads like this: (input ligand: FMN 200 uM) 12.4 nM; (input ligand: none) 12 nM.

With “GUCAGACGAGGAUAUAAACGAUAUAACAUGAGGAUCACCCAUGUACGAUCGAAUGAUCGUUUAGAAGGCGUCUGAC [E5/10-A4] (Eterna round: R97, puzzle: Exclusion 5)”, the “apparent KD of MS2 coat protein” value is, setting by setting: (input ligand: FMN 200 uM) 17.3 nM; (input ligand: none) 16.7 nM.

As for “GUCAGCUCGUCAGGAUAUACAUGAGGAUCACCCAUGUGAUCAAUAGCAGCUUCGGCUGCAAUAAUGUAGAAGGGACGAGCUGAC [ENG2/8-F] (Eterna round: R96, puzzle: Exclusion NG 2)”, the “apparent KD of MS2 coat protein” value reads like this: (input ligand: FMN 200 uM) 129 nM; under setting [4], 578 nM; (input ligand: none) 180 nM.

Turning to “GUCAGCUCGUCAGGAUAUACAUGAGGAUCACCCAUGUGAUCAAUAGCAGCUUCGGCUGCAUUAAUGUAGAAGGGACGAGCUGAC [ENG2/5-B1] (Eterna round: R96, puzzle: Exclusion NG 2)”, the “apparent KD of MS2 coat protein” value runs as follows: (input ligand: FMN 200 uM) 34.7 nM; under setting [4], 33 nM; (input ligand: none) 368 nM.

Take “GUCAGCUCGUCAGGAUAUACAUGAUAGAUCGAUUAAUUAAUUAAUUUAACAUGAGGAUCACCCAUGUAGAAGGGACGAGCUGAC [ENG2/1-B1] (Eterna round: R96, puzzle: Exclusion NG 2)”: the “apparent KD of MS2 coat protein” value under setting [4] came out at 39.8 nM.

As to “GUCAGCUCGUGAGGAUAUACAUGAGGAUCACCCAUGUGAUCAAUAGCAGCUUCGGCUGCAUUAAUGUAGAAGGUACGAGCUGAU [ENG2/5-C2] (Eterna round: R96, puzzle: Exclusion NG 2)”, the “apparent KD of MS2 coat protein” value reads like this: (input ligand: FMN 200 uM) 105 nM; under setting [4], 231 nM; (input ligand: none) 463 nM.

“GUCAGCUCGUGAGGAUAUAUAUACAUGAGGAUCACCCAUGUAAGAUCAGCACUUCGGUGCAGUAUAUAGAAGGCACGAGCUGAC [ENG2/13-A1] (Eterna round: R96, puzzle: Exclusion NG 2)”: the “apparent KD of MS2 coat protein” value (input ligand: FMN 200 uM) was determined as 46.1 nM, the “apparent KD of MS2 coat protein” value under setting [4] turned out to be 21.6 nM and the “apparent KD of MS2 coat protein” value (input ligand: none) was 29.1 nM.

On to “GUCAGCUCGUGAGGAUAUAUAUUAACAUGAGGAUCACCCAUGUAAGAUCAGCUUCGGCAGUUAAUAUAGAAGGCACGAGCUGAC [ENG2/14-A1] (Eterna round: R96, puzzle: Exclusion NG 2)”, for which the “apparent KD of MS2 coat protein” value under setting [4] was found to be 137 nM.

For “GUCAGCUCGUGAGGAUAUGCACAUGAGGAUCACCCAUGUAAGAUCAAGCUGCUUCGGCAGCAAGUGCAGAAGGUACGAGCUGAU [ENG2/9-C3] (Eterna round: R96, puzzle: Exclusion NG 2)”, the “apparent KD of MS2 coat protein” value stood at 257 nM (input ligand: FMN 200 uM), 225 nM under setting [4] and 286 nM (input ligand: none).
